In the DeepSol protein solubility set:

Experiment: soluble on expression in E. coli; label from the status in PepcDB or PDB records

| Sequence | soluble on expression in E. coli |
| --- | --- |
| MTQANLSETLFKPRFKHTETSTLVRRFNRGSQPPMQSALDGKNVPHWYRMINRLMWIWRGVDPREILDVQARIVMSDAERTDDDLYDTVIGYRGGNWIYEWAKQAMDWQQKACQEQDAMRSGRYWLHASTLYNIAAYPHLKGDELAEQAQALANRAYEEAAQRLPGSLREMEFAVPGGSPVTAFLHMPKGDGPFPTVLMCGGLDAMQTDYYTLYERYFAPRGIAMLTLDMPSVGFSSKWKLTQDSSLLHQHVLKALPNVPWVDHTRVAAFGFRFGANVAVRLAYLEAPRLKAVACLGPVVHALLSDPQRQSTVPEMYLDVLASRLGMHDASDEALRVELNRYSLKVQGLLGRRCPTPMLSGFWKNDPFSPEEESRLITTSSSDGKLIEIPFNPVYRNFDRALQEITDWINHRLC | not soluble |
| MTQNHSASLLVELLTEELPPKALARLSDAFAEGIAQRLAARDLIEGELAFERYATPRRLAVVVQNVRAVAPERQVREKVLPVSVALDAQGKPTAPLAKKLAALGHPNLSIADLERAHDGKAEAFFVNYASPGATLAEGLQAALDETLAKLPIPKVMTYQRPDGTDVQFVRPVHRLSALHDDRIVPVCAFGIDAGDTTLGHRFLSDGLVAIQHANAYADTLRDKGRVLAHFAGRKEAIRAQLEANAGGDQVVMPEALLDEVTSLVEWPVVYPCRFEDEFLQVPQECLILTMQTNQKYFALTDAAGKLRSRFLIVSNIETKTPDEIVEGNERVVRPRLADAKFFFEQDKKKPLADRVPLLANVVYHNKLGSQLARIERLETLAGEIAPAIGADATVAIRAARLAKADLLTDMVGEFPELQGTMGTYYARHDGEAEDVAIACSEHYQPRFSGDALPTTPVSTAVALADKLETIVGIWGIGLAPTGEKDPFALRRHALGVLRLLLEKQLPLDLVWLLRTTYERFAAVPDVAESTDAIHAFFVERLRGLLRERGYTAGEVDAVLSLNPTR | not soluble |
| MTQTAAPARYSPAELACALGLFPPTAEQAAVIAAPPGPLVVIAGAGAGKTETMAARVVWLVANGYAEPGQVLGLTFTRKAAGQLLRRVRSRLARLAGIGLGCGDPAACAPVVSTYHAFAGSLLRDYGLLLPLEPDTRLLSETELWQLAFDVVSGYDGVLCTDKSPAAVTSIVVRLWGQLGEHLVDTRALRDTHVELERLVHALPAGRYQRDRGPSQWLLRMLATQTQRAELVPLLDALGERMHAGKVMDFAMQMASAARLAATSPQVGQDLRRRYRVVLLDEYQDTGHAQRVVLSSLFGGGVDDGLALTAVGDPIQSIYGWRGASATNLPRFTTDFPLSDGTPAPVLELLTSWRNPPQALRVANGISAEARRRSVAVRALRPRPDAPPGAVRCALLPDVQAEREWIADHLRMRYQRAEADGVKPPTAAVLVRRNADAAAIADTLRARGIPAEVVGLAGLLSIPEVAEVVAMLRLVADPTAGAAAMRVLTGPRWRLGARDLAALWRRALTLSGESPSTASPESIAMAASADADNPCLADAISDPGSAEGYSVAGYGRIGALAGELSALRGRLGHSLPDLVAEVRRVLGVDCEVRASAPVSGGWAGPEHLDAFADVVAGYAERASARSSEASVAGLLAYLDVAEVVENGLPPAELTVACDRVQVLTVHAAKGLEWQVVAVAHLSRGVFPSTVSRSSWLTDPAELPPLLRGDRASAGAHGIPVLDTSAVADRKQLSDKISEHRRLLDRRRVDEERRLLYVAVTRAEDTLLVSGHHWGPTGTKPRGPSEFLCELKDIIDRSAAAGDPCGVVEQWASAPAGDERNPLCDNAIEAVWPADPLAARRGDVERGAALVAAAMSADLPGSTTDIDHPPRPGDAPWSTDVDALLAERAHAARGAPARGLPNHLSVSSLVELVGDPVGARQRLMCRLPKRPDPHAWLGDAFHAWVQQFYGAELLFDLGDLPGAADREVGDPEELAALQRAFTASSWAARTPAAVEVPFEMPIGDTVVRGRIDAVFVDPDGGATVVDWKTGKPPHGPAAMRQAAVQLAVYRLAWAALRGCPTSSVRTAFYYVRSGITVVPDELPAPGELAMLLTDCAGRRSDT | not soluble |
| MTRDDDDDEDDEEEEDSGAWGRESYAFDGFHPTEEFGFSFSPRGGMRFHGNFGFDDLVRDFNSIFSEMGAWTLPSHSPELPGPESETPGVRLREGQTLRDSMLKYPDSHQPRIFEGVLESHAKPESSKPAPDWGSQGPFHRLDDTWPVSPHSRAREDKDLDSQVSQEGLGPLLQPQPKSYFKSISVTKITKPDGTVEEHRTVVDGEGRRETTVTHQEAHDSSRSDPDPPRSSALDDPFSILDLLLGRWFRSR | not soluble |
| MTRMLPEPAYRHGSVGKIGVLMINLGTPDAPTAKALRAYLKQFLSEPRIVEFPRWLWWFILNGIILNVRPAKSAKKYEQIWTSEGSPLRVHTARQTALVAALLEQQADSSLVVEYAMIIGNPSIAEKLQQMKVQGCDRILVLPLFPQYAASSTGCVLDGVFSELRKMRNIPDIRTVRHYHDDPGYIAALAQNVRDYWEKHGQPDKLIISFHGVPRKTLEMGDPYHCECQKTGRLLAEALELADDRYQICFQSRFGFAQWLGPYTAEILAELGKQKTGRVDVVCPGFVSDCLETLEEIALEGKAIFTEAGGGEFHYIPSLNEHPLWIEAIGNIIQTHLTGWADRRLSEEAAERSRKRALALGARE | not soluble |
| MTRQGWLVPCLSHGKDDQLQDELSELSKAYRKKFQTDLHTKSGDIIDPSGEFLYVYLDEENYRICRQSMVLVSNAPDGLIATTLEPYSDSYTFRQVREQLQAFSGDGGRINYSRNEHSSSYFLTIQASNEFKHVGAVRNTFGQSKDIWKRRMPDASQPLDYHLIAVGCSAFLPEAALDDVESDGAVLEHHHHHH | not soluble |
| MTRTSKWTVHEAKSNPKYFTHNGNFGESPNHVKRGGYGKGNWGKPGDEINDLIDSGEIKTVFNKTRRGSNSQNNERRLSDLQQYHI | soluble |
| MTSAAEITAAVRQLYNTYPFPPEPLLDEPPPGYNWRWSWPAAYSFCTGRYPSQLDVAILDAGCGTGVGTEYLAHLNPQAKITALDLSEAALAIACERCRRSGATNVQFHHLSLEEVAQLGQTFQMINCVGVLHHLPEPQRGIQALADVLAPGGIVHIFVYGEYGRWEIKLMQQAIALLQGSDRHNYREGVAIGRQLFAALPENNRLKKREQERWSLENQRDECFADMYVHPQEIDYTIASLFELIRASGLEFIGFSNPQVWQLERLLGSQPELLQRAQQLDPIQQYQLIECLDPEAMTHFEFFLAKPPLPRHDWAADRELLAAIPWRHPCIDGWPGACVFNCHYEVIHLNQAEQEFLNAASGKATVAELLAQQPDFNLAEVRSLLARHLLLLGVKE | not soluble |
| MTSHKRFCLSSRSPSYHTTELSLPLYIKFISWDFDCFQVDDVGFRPIFSAKTPNSPFTVEILRSGISGIVFDERETNTTANDGRMNFAMEYIIDKLLGDRCVPITVETLQISVDRVHYIFSKNLNMICKNLDVSIIETGVTLDTILHTSSYPLKSLSLSNTWAFAHPIILTAELLIVPTSDHFHRITNARVHAISLSGDFKLFIYEWLENGREIGTEFTIGGFRGRDYAKKMVCDIKEEFDERFQVVRRSHFPLSIAIKMNDFSEIYVFYDDIMERSKVYFKVQPTQF | not soluble |
| MTSKTNMTSNKFAYDFFPWSNDTNSSQQIKNIKPPPKRSNRPTKRTTFTSEQVTLLELEFAKNEYICKDRRGELAQTIELTECQVKTWFQNRRTKKRSSELKFGTACSENKTSTKWYYDSKLLFCYPYKYLGCGEGSNSFESNENCLESCKPADQFSCGGNTGPDGVCFAHGDQGCKKGTVCVMGGMVGFCCDKKIQDEWNKENSPKCLKGQVVQFKQWFGMTPLIGRSCSHNFCPEKSTCVQGKWTAYCCQ | soluble |
| MTSQRCRRRYFMMIRERIEEKLRAAFQPVFLEVVDESYRHNVPAGSESHFKVVLVSDRFTGERFLNRHRMIYSTLAEELSTTVHALALHTYTIKEWEGLQDTVFASPPCRGAGSIA | soluble |
| MTTAAKTETEDPTARRILDAALEQFTVFGLRRSSMDDVAKRAGVSRVTVYRRFGTKDALVEQTLLRENSRFFQRLDQAVAALPTMEERVVEGFVVALRHTRAHPLFGGLLRLEPEVVLPYLTVHGGSSLAATVDYLTGHLRRAQQAEGRPGDDPRPVAELMVRVAVSFLLNPASCIEMDDEDQARAFARRYLAPLLNA | not soluble |
| MTTAHFYCQYCTASLLGKKYVLKDDSPYCVTCYDRVFSNYCEECKKPIESDSKDLCYKDRHWHEGCFKCTKCNHSLVEKPFAAKDERLLCTECYSNECSSKCFHCKRTIMPGSRKMEFKGNYWHETCFVCENCRQPIGTKPLISKESGNYCVPCFEKEFAHYCNFCKKVITSGGITFCDQLWHKECFLCSDCRKDLCEEQFMSRDDYPFCMDCYNHLYANKCVACSKPISGLTGAKFICFQDSQWHSECFNCGKCSVSLVGKGFLTQNKEIFCQKCGSGMDTDI | soluble |
